The source of these data is article PMC9769499.

This series has as its target T1, CzcR (Pseudomonas aeruginosa PAO1) (UniProt Q9RLJ1).
T1 sequence: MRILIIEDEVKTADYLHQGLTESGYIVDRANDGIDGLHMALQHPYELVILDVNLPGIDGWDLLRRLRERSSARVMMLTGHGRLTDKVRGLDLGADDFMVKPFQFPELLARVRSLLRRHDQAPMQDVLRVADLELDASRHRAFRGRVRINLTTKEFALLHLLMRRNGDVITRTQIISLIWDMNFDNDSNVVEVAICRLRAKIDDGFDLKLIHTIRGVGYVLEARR
The series can be described thus: EMSA. Conditions: Thermo Scientific EMSA kit per manufacturer's instructions; buffer, salt, pH and temperature not stated.
As for “CATCTGCTTCATACCTTGTGTTGTCGTCTTCCCGGAACGCCCCTTCCAGCGCTCTCCGGTATTGGCGGGAACGATGCGCCATCGCTCCCGGCCCGGCGGAAGCCACCTTCGCTTCCGTCACCCGCGCCACGCGCGGTTCTTCCCACGTCCTCA (double strand) [PfleN]”, the binding entry is on record as “binds”.
For the sequence “CTGACTCATGACTCTTCCTCCAACAGCCGCGGCTTTTTTGACGCCGCCCGGCACTTTGCAGAGGAGTTAGCAACAAGGGTGCCAAGTCGGCCCCAAGGCCCGGCATCGGCGTTCGCCGCCAATGCCCGCGACCGCTGCAGGGTCCGTCCCTGCTCCGGTTATCGGCAGGCGCGCACGCTCGAACAG (double strand) [PfliE]”, the binding entry is recorded as “no binding”.
As for “GACGTACAGCATCTTGTCCATCGAATCCTCCAGGCACCGGCACAATCCGCCGGGCTTTCTTGCAGGTTATCCAGCAAGCGCCGTGCCAGAATTCGAAAAAACAATTAATACATTGATTTAAAAGGATTTTATAAAACAGAAAGCCTCCTTTCGGAGGCTTCGGGGGCAA (double strand) [PflgF]”, the binding entry is listed as “binds”.
As to “GCAACCGTTCGGAACATTCTTCCCGTCGGGGGTAGGCGAGCGACTTGCCCTGTGGAATAATACTGTCTACTTATACAGTTGTTCGTGGCCGTCCGGCCGCCCTGACTTCGCGAGGACTTCAATGGA (double strand) [recA fragment (PrecA)]”, the binding entry is reported as “no binding”.
With “GCGCACATTGCTGATCAGTTGCGTGCGATCCACTCTCGACTCCCCTGCCCTGCGTATGGCGCCCGTGGGTGGGCGCCGAACAAACTTTTGACGCCGGAATGCGCGTCGGGCGGGTCATTGCAGGAACCGTTCCAACTTTTCAATTCATTGATTGAAAAGGGTTTTCGCCAA (double strand) [PflhA]”, the binding result is recorded as “no binding”.
For “GGTGATTTCCTCCAAAGGACCTATTTCGGTTACCTGAGCTTGCGATCTCTCGGCCTGCTTGCTCAGGTGCCCCAAGAATTCGCGTTCATGGTGTTTATCGGCGTTTCCCGGCGGAGCTTTAGAGAAAAAATCAACATTTTCTTTTTCTCTTCCTCTTCAGTGGGTTACATGCTTCGAAGAGGACTCGCCAATATCGGTCCTGAA (double strand) [PfliC]”, the binding entry is given as “no binding”.
In the case of “GTTCCAGGGGCTTGCCACCCTTGCCGGCAAGCGGAAGCGGCTTGCCGCTTGCCGCTTCCGGGTTACCCTTAAATAAACTCAAGTTATTGAATATAAAGGTTTTTAATAATTTGGCACGGGCCTTGCTGAAGTGTTGGCGACGAAAGCCACACCGGCAAACAGGTTCGCAGCCATGAGCATCAGTTTCGA (double strand) [PflgB]”, the binding result is reported as “binds”.
To “TACACAGTGTCCTGTTCGAAACCCGCGCCTGACGCGCGGGTTGAACGACTTGGCATGGTGCTTGCCCTATCGAAGGGATAGGGCAGTACATGCACGGTTTTTTGACGGAGATGGATTATGGCCGGTATCTCGATAGGAGTA (double strand) [PfliD]” belongs “no binding”; to “TCATGGGTGTCGGGCTCGGTGTCGGCGAGGCGGCGAACTGGCTTTTCGAGTATTCGGACTATAGTCTTGCGGCTAGCAACCGATAACAAGAGGGAGCCTAGCAGTCCCCCTCCTTATCCTGTTCATTTCGCACGTCCGGTCCTCATGTCAAAAATCATCGGC (double strand) [PmotA]”, “no binding”; to “TTTCTTAGCCATGCCAAAAATCCGTCGCTATAGCGTCAAATGAAGGGTTTCACAGGGGCAGAGCAAGGGTTGTGCCATTTCTGCAACGCCGCCCCGCCTCCTGGGACCAGCCCCGGAGGGCTGTCCGAGATGATAGACGGCGCGGATATTACAGCCTGGCCACAGGAAATCATCCCCGTCTTTTGCGAAATTGCC (double strand) [PPA1442]”, “binds”.
